Results reported in patent US20240261333A1, “NOVEL TARGETS FOR ENHANCING ANTI-TUMOR IMMUNITY” (THE BROAD INSTITUTE, INC., priority 2021, published 2024).

T1: B3GNT2 (Homo sapiens, UniProt Q9NY97)
T1 construct: The respective ORFs of candidate genes [CD274 (NM_014143), MCL1 (NM_021960), JUNB (NM_002229), and B3GNT2 (NM_006577)] were synthesized; expressed in transfected cells; host or cells: A375 melanoma cells (lentiviral ORF overexpression)
T1 sequence (Q9NY97 1-397): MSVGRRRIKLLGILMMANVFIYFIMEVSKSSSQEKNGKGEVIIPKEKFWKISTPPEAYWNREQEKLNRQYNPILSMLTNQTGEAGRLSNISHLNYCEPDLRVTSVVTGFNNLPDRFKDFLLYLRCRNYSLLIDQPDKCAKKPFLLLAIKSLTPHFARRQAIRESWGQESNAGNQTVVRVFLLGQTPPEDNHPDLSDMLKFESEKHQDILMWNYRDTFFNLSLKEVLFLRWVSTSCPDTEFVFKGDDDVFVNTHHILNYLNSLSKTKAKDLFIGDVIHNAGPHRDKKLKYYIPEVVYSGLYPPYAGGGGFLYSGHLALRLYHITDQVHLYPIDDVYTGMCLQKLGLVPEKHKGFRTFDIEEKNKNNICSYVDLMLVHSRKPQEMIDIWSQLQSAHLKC

B1: ARG1 (protein)
chain: MSAKSRTIGIIGAPFSKGQPRGGVEEGPTVLRKAGLLEKLKEQECDVKDYGDLPFADIPNDSPFQIVKNPRSVGKASEQLAGKVAEVKKNGRISLVLGGDHSLAIGSISGHARVHPDLGVIWVDAHTDINTPLTTTSGNLHGQPVSFLLKELKGKIPDVPGFSWVTPCISAKDIVYIGLRDVDPGEHYILKTLGIKYFSMTEVDRLGIGKVMEETLSYLLGRKKRPIHLSFDVDGLDPSFTPATGTPVVGGLTYREGLYITEEIYKTGLLSGLDIMEVNPSLGKTPEEVTRTVNTAVAITLACFGLAREGNHKPIDYLNPPK
B2: MTDH (protein, UniProt Q86UE4 1-582, looked up)
Protein LYRIC: MAARSWQDELAQQAEEGSARLREMLSVGLGFLRTELGLDLGLEPKRYPGWVILVGTGALGLLLLFLLGYGWAAACAGARKKRRSPPRKREEAAAVPAAAPDDLALLKNLRSEEQKKKNRKKLSEKPKPNGRTVEVAEGEAVRTPQSVTAKQPPEIDKKNEKSKKNKKKSKSDAKAVQNSSRHDGKEVDEGAWETKISHREKRQQRKRDKVLTDSGSLDSTIPGIENTITVTTEQLTTASFPVGSKKNKGDSHLNVQVSNFKSGKGDSTLQVSSGLNENLTVNGGGWNEKSVKLSSQISAGEEKWNSVSPASAGKRKTEPSAWSQDTGDANTNGKDWGRSWSDRSIFSGIGSTAEPVSQSTTSDYQWDVSRNQPYIDDEWSGLNGLSSADPNSDWNAPAEEWGNWVDEERASLLKSQEPIPDDQKVSDDDKEKGEGALPTGKSKKKKKKKKKQGEDNSTAQDTEELEKEIREDLPVNTSKTRPKQEKAFSLKTISTSDPAEVLVKNSQPIKTLPPATSTEPSVILSKSDSDKSSSQVPPILQETDKSKSNTKQNSVPPSQTKSETSWESPKQIKKKKKARRET
B3: DDX20 (protein)
chain: MAAAFEASGALAAVATAMPAEHVAVQVPAPEPTPGPVRILRTAQDLSSPRTRTGDVLLAEPADFESLLLSRPVLEGLRAAGFERPSPVQLKAIPLGRCGLDLIVQAKSGTGKTCVFSTIALDSLVLENLSTQILILAPTREIAVQIHSVITAIGIKMEGLECHVFIGGTPLSQDKTRLKKCHIAVGSPGRIKQLIELDYLNPGSIRLFILDEADKLLEEGSFQEQINWIYSSLPASKQMLAVSATYPEFLANALTKYMRDPTFVRLNSSDPSLIGLKQYYKVVNSYPLAHKVFEEKTQHLQELFSRIPFNQALVFSNLHSRAQHLADILSSKGFPAECISGNMNQNQRLDAMAKLKHFHCRVLISTDLTSRGIDAEKVNLVVNLDVPLDWETYMHRIGRAGRFGTLGLTVTYCCRGEEENMMMRIAQKCNINLLPLPDPIPSGLMEECVDWDVEVKAAVHTYGIASVPNQPLKKQIQKIERTLQIQKAHGDHMASSRNNSVSGLSVKSKNNTKQKLPVKSHSECGIIEKATSPKELGCDRQSEEQMKNSVQTPVENSTNSQHQVKEALPVSLPQIPCLSSFKIHQPYTLTFAELVEDYEHYIKEGLEKPVEIIRHYTGPGDQTVNPQNGFVRNKVIEQRVPVLASSSQSGDSESDSDSYSSRTSSQSKGNKSYLEGSSDNQLKDSESTPVDDRISLEQPPNGSDTPNPEKYQESPGIQMKTRLKEGASQRAKQSRRNLPRRSSFRLQTEAQEDDWYDCHREIRLSFSDTYQDYEEYWRAYYRAWQEYYAAASHSYYWNAQRHPSWMAAYHMNTIYLQEMMHSNQ
B4: NCCRP1 (protein)
chain: MEEVREGHALGGGMEADGPASLQELPPSPRSPSPPPSPPPLPSPPSLPSPAAPEAPELPEPAQPSEAHARQLLLEEWGPLSGGLELPQRLTWKLLLLRRPLYRNLLRSPNPEGINIYEPAPPTGPTQRPLETLGNFRGWYIRTEKLQQNQSWTVKQQCVDLLAEGLWEELLDDEQPAITVMDWFEDSRLDACVYELHVWLLAADRRTVIAQHHVAPRTSGRGPPGRWVQVSHVFRHYGPGVRFIHFLHKAKNRMEPGGLRRTRVTDSSVSVQLRE
B5: LIMA1 (protein)
chain: MESSPFNRRQWTSLSLRVTAKELSLVNKNKSSAIVEIFSKYQKAAEETNMEKKRSNTENLSQHFRKGTLTVLKKKWENPGLGAESHTDSLRNSSTEIRHRADHPPAEVTSHAASGAKADQEEQIHPRSRLRSPPEALVQGRYPHIKDGEDLKDHSTESKKMENCLGESRHEVEKSEISENTDASGKIEKYNVPLNRLKMMFEKGEPTQTKILRAQSRSASGRKISENSYSLDDLEIGPGQLSSSTFDSEKNESRRNLELPRLSETSIKDRMAKYQAAVSKQSSSTNYTNELKASGGEIKIHKMEQKENVPPGPEVCITHQEGEKISANENSLAVRSTPAEDDSPGDSQVKSEVQQPVHPKPLSPDSRASSLSESSPPKAMKKFQAPARETCVECQKTVYPMERLLANQQVFHISCFRCSYCNNKLSLGTYASLHGRIYCKPHFNQLFKSKGNYDEGFGHRPHKDLWASKNENEEILERPAQLANARETPHSPGVEDAPIAKVGVLAASMEAKASSQQEKEDKPAETKKLRIAWPPPTELGSSGSALEEGIKMSKPKWPPEDEISKPEVPEDVDLDLKKLRRSSSLKERSRPFTVAASFQSTSVKSPKTVSPPIRKGWSMSEQSEESVGGRVAERKQVENAKASKKNGNVGKTTWQNKESKGETGKRSKEGHSLEMENENLVENGADSDEDDNSFLKQQSPQEPKSLNWSSFVDNTFAEEFTTQNQKSQDVELWEGEVVKELSVEEQIKRNRYYDEDEDEE
B6: MTCH2 (protein, UniProt Q9Y6C9 2-303, looked up)
Mitochondrial carrier homolog …: ADAASQVLLGSGLTILSQPLMYVKVLIQVGYEPLPPTIGRNIFGRQVCQLPGLFSYAQHIASIDGRRGLFTGLTPRLCSGVLGTVVHGKVLQHYQESDKGEELGPGNVQKEVSSSFDHVIKETTREMIARSAATLITHPFHVITLRSMVQFIGRESKYCGLCDSIITIYREEGILGFFAGLVPRLLGDILSLWLCNSLAYLVNTYALDSGVSTMNEMKSYSQAVTGFFASMLTYPFVLVSNLMAVNNCGLAGGCPPYSPIYTSWIDCWCMLQKEGNMSRGNSLFFRKVPFGKTYCCDLKMLI
B7: TMEM59 (protein)
chain: EAFDSVLGDTASCHRACQLTYPLHTYPKEEELYACQRGCRLFSICQFVDDGIDLNRTKLECESACTEAYSQSDEQYACHLGCQNQLPFAELRQEQLMSLMPKMHLLFPLTLVRSFWSDMMDSAQSFITSSWTFYLQADDGKIVIFQSKPEIQYAPHLEQEPTNLRESSLSKMSYLQMRNSQAHRNFLEDGESDGFLRCLSLNSGWILTTTLVLSVMVLLWICCATVATAVEQYVPSEKLSIYGDLEFMNEQKLNRYPASSLVVVRSKTEDHEEAGPLPTKVNLAHSEI

Target: T1, B3GNT2
Experiment: Co-IP of FLAG-tagged B3GNT2 followed by mass spectrometry
Format: cell-based
Parameters: C-term IgG / C-term flag: unit not given here
Conditions: Co-IP followed by mass spectrometry of B3GNT2; for C-term flag / C-term IgG: C-term tag; for C-term flag / N-term FLAG: FLAG pull-down; for C-term IgG / N-term IgG: IgG pull-down; for N-term FLAG / N-term IgG: N-term tag
Experimental: Cells were plated in 10-cm cell culture dishes and grown to 60-80% confluency. For each condition, two biological replicates were harvested for co-IP. Cells were washed with PBS and 4 mL of lysis buffer (20 mM HEPES, 1% Triton X-100, 150 mM NaCl, 1 mM EDTA, and 10% glycerol) containing protease inhibitor cocktail was added. Cells were scraped and lysate was incubated at 4° C. under rotary agitation for 1 h. Lysate was centrifuged at 14,000×g for 10 min at 4° C. Supernatant was transferred to a new tube and an aliquot was taken as the input. […] For Western blots, 10 μg/mL Chicken Anti-FLAG (Aves labs ET-DY100) and IgY control (R&D Systems AB-101-C) antibodies were biotinylated (Thermo Fisher Scientific 90407) and added to the respective conditions. Lysates with antibodies were incubated at 4° C. under rotary agitation overnight. For each mL of lysate, 50 μL of Pierce Protein A/G Magnetic Beads (Mass spectrometry; Thermo Fisher Scientific 88803) or Pierce Streptavidin Magnetic Beads (Western blot; Thermo Fisher Scientific 88817) was washed twice with lysis buffer. Lysates with antibodies were added to the beads and incubated at 4° C. under rotary agitation for 4 h. Beads were washed with lysis buffer 3 times and resuspended in lysis buffer for storage. […] This solution was subjected to solid phase extraction to concentrate the peptides and remove unwanted reagents followed by injection onto a Shimadzu HPLC with fraction collector. Eight fractions were collected and after concentration were injected on a Waters NanoAcquity HPLC equipped with a self-packed Aeris 3 μm C18 analytical column 0.075 mm by 20 cm, (Phenomenex). Peptides were eluted using standard reverse-phase gradients. The effluent from the column was analyzed using a Thermo Orbitrap Elite mass spectrometer (nanospray configuration) operated in a data dependent manner for 54 minutes. […] Scaffold Q+S (Proteome Software) was used to provide consensus reports for the identified proteins.

Molecule | C-term flag | C-term IgG | N-term FLAG | N-term IgG
B1 | 6 | 4 | 8 | 4
B2 | 6 | 0 | 0 | 0
B3 | 6 | 0 | 0 | 0
B4 | 4 | 0 | 4 | 4
B5 | 2 | 0 | 4 | 3
B6 | 2 | 0 | 4 | 0
B7 | 0 | 0 | 6 | 0
